{"source": "patent US20190309074A1", "about": "“DEGLYCOSYLATED ANTIBODY SPECIFICALLY BINDING TO CLEC14A AND USES THEREOF” (WOORI TECHNOLOGIES CORPORATION, priority 2016, published 2019)", "molecules": {"B1": {"name": "Clone 1 IgG: parent antibody CDRs grafted to the framework region of omalizumab (Xolair®) (antibody, V domains shown)", "VH": "EVQLVESGGGLVQPGGSLRLSCAVSGFTFSGYDMSWIRQAPGKGLEWVAGIYPDGGNTYYADSVKGRFTISRDDSKNTFYLQMNSLRAEDTAVYYCARGATWWVLGPFDYWGQGTLVTVSS", "VL": "DIQLTQSPSSLSASVGDRVTITCTGSSSNIGNNSVTWYQQKPGKAPKLLIYADSHRPSGVPSRFSGSGSGTDFTLTISSLQPEDFATYYCGAWDDSLSGYVFGQGTKVEIKR"}}, "key": {"[1]": {"assay": "aggregation of purified antibody by visual observation and spectrophotometry", "assay_type": "physicochemical", "conditions": "for aggregation by visual observation: purified antibody preparation", "from_the_text": "In order to identify improved aggregation degree of clone 1 IgG, aggregation of purified parent antibody IgG and clone 1 IgG was compared by visual observation and then was confirmed by spectrophotometry."}, "HUVEC tube formation": {"system": "HUVEC tube formation", "assay": "HUVEC tube formation assay", "assay_type": "cell-based, human", "conditions": "branches as % of MOCK", "protocol": "Genetic mutation introduced during antibody engineering induces unpredicted defects, resulting in deterioration in antibody functions. In order to isolate antibodies for suppressing clec14a-mediated angiogenesis, tube formation and endothelial cell migration assay using human umbilical vein endothelial cells (HUVECs) were conducted in the presence or absence of clone 1 IgG and deglyco C1-C4 IgGs. Among the four types of deglyco IgGs, deglyco C1 IgG was selected as a candidate antibody. […] In addition, it can be seen that deglyco C1 IgG includes desired alterations (N32R/N33C/S34G) in the amino acid sequence in light chain CDR1.\nIn order to compare in vitro angiogenesis suppression effect between deglyco C1 IgG and bevacizumab, tube formation and migration assay were conducted in the presence or absence of parent antibody IgG, deglyco C1 IgG or bevacizumab as a positive control group.\nIn order to investigate in vitro effects of deglyco C1 IgG on VEGF-dependent angiogenesis, HUVECs were treated with VEGF in the presence or absence of deglyco C1 IgG, and then HUVEC tube formation assay was conducted. 150 μl of Matrigel was added to a 48-well plate and incubated at 37° C. for 30 minutes. HUVEC (10^5) cultured in EGM-2 were collected, seeded on the Matrigel-coated plate and incubated at 37° C. for 18 hours in the presence or absence of clone 1 IgG, parent antibody IgG, deglycosylated clec14a-CTLD IgG or bevacizumab. HUVECs cultured in VEGF-containing EBM (endothelial cell basal medium) were seeded to the Matrigel-coated plate and incubated at 37° C. for 18 hours in the presence or absence of deglyco C1 IgG (20 μg ml^−1)."}, "mclec14a-CTLD-Fc": {"target": "T1, mclec14a-CTLD-Fc (Mus musculus, UniProt Q8VCP9)", "T1 construct": "both human and mouse clec14a-CTLDs (hclec14a-CTLD and mclec14a-CTLD)", "T1 sequence (Q8VCP9 33-173 limits assumed)": "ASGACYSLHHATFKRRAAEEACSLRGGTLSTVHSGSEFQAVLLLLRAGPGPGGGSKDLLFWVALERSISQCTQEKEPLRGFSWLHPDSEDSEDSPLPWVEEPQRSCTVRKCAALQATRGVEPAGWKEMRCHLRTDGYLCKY", "assay": "ELISA binding specificity", "from_the_text": "(§1) Then, the scFv clones were converted into IgG, expressed in human embryonic kidney (HEK) 293 cells and then purified."}, "hclec14a-CTLD-Fc": {"target": "T2, hclec14a-CTLD-Fc (Homo sapiens, UniProt Q86T13)", "T2 sequence (Q86T13 33-173 limits assumed)": "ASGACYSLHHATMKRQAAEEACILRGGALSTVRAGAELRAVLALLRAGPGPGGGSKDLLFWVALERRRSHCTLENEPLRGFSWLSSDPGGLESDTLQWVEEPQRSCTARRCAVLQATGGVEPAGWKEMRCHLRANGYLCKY", "assay": "ELISA binding specificity", "from_the_text": "as §1"}, "[2]": {"assay": "water-soluble antibody weighed after aggregates precipitated and removed by centrifugation", "assay_type": "physicochemical", "from_the_text": "For further comparison in stability between parent antibody IgG and clone 1 IgG, a water-soluble antibody was weighed after aggregates were precipitated and removed by centrifugation."}}, "data": [{"molecule": "B1", "values": [{"measurement": "aggregation by visual observation", "setting": "[1]", "value": "not visually observed"}, {"measurement": "aggregation by visual observation", "setting": "[1]; listed as the antibody substituted with the framework of omalizumab (Xolair®)", "value": "no aggregation"}, {"measurement": "Aggregation index", "setting": "[1]; spectrophotometry, 100×[Abs340/(Abs280−Abs340)]", "value": "~1.5"}, {"measurement": "inhibitory activity against HUVEC tube formation", "setting": "HUVEC tube formation", "value": "inhibitory activity against tube formation, comparable to the parent antibody"}, {"measurement": "binding to mclec14a-CTLD-Fc", "setting": "mclec14a-CTLD-Fc", "value": "cross-reactivity to human and mouse CTLDs"}, {"measurement": "binding to hclec14a-CTLD-Fc", "setting": "hclec14a-CTLD-Fc", "value": "cross-reactivity to human and mouse CTLDs"}, {"measurement": "antibody of the preparation aggregated", "setting": "[2]", "value": "no antibody aggregation was observed"}]}]}
